Data: IntAct's records for PubMed 29892012

B1: Transmembrane protein 218 (Homo sapiens), A2RU14 (parent)
chain: MAGTVLGVGAGVFILALLWVAVLLLCVLLSRASGAARFSVIFLFFGAVIITSVLLLFPRAGEFPAPEVEVKIVDDFFIGRYVLLAFLSAIFLGGLFLVLIHYVLEPIYAKPLHSY
partner: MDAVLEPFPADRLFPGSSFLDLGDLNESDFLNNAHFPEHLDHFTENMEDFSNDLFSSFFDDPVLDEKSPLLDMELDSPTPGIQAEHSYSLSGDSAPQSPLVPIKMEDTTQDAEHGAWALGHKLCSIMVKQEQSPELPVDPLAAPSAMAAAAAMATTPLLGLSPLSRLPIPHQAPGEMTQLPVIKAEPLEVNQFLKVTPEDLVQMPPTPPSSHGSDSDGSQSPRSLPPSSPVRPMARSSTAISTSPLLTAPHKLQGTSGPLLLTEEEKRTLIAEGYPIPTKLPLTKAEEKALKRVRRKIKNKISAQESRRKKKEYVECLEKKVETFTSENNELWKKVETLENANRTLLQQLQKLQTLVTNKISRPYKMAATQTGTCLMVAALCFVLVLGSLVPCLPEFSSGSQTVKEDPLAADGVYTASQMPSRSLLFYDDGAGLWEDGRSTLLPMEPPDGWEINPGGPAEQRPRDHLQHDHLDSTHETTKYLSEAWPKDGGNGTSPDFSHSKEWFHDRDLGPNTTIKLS
B2: Genetic suppressor element 1 (Homo sapiens), Q14687 (parent)
chain: MKGMSHEPKSPSLGMLSTATRTTATVNPLTPSPLNGALVPSGSPATSSALSAQAAPSSSFAAALRKLAKQAEEPRGSSLSSESSPVSSPATNHSSPASTPKRVPMGPIIVPPGGHSVPSTPPVVTIAPTKTVNGVWRSESRQDAGSRSSSGGRERLIVEPPLPQEKAGGPAIPSHLLSTPYPFGLSPSSVVQDSRFPPLNLQRPVHHVVPPSTVTEDYLRSFRPYHTTDDLRMSSLPPLGLDPATAAAYYHPSYLAPHPFPHPAFRMDDSYCLSALRSPFYPIPTPGSLPPLHPSAMHLHLSGVRYPPELSHSSLAALHSERMSGLSAERLQMDEELRREREREREREREREADREREKEREREREKEREQEKEREREKERERELERQREQRAREKELLAAKALEPSFLPVAELHGLRGHATEERGKPSEQLTPTRAEKLKDAGLQAPKPVQHPLHPVPTPHHTVPSLISNHGIFSLPSSSAATALLIQRTNEEEKWLARQRRLRQEKEDRQSQVSEFRQQVLEQHLDMGRPPVPAEAEHRPESTTRPGPNRHEPGGRDPPQHFGGPPPLISPKPQLHAAPTALWNPVSLMDNTLETRRAESHSLHSHPAAFEPSRQAAVPLVKVERVFCPEKAEEGPRKREPAPLDKYQPPPPPPREGGSLEHQPFLPGPGPFLAELEKSTQTILGQQRASLPQAATFGELSGPLKPGSPYRPPVPRAPDPAYIYDEFLQQRRRLVSKLDLEERRRREAQEKGYYYDLDDSYDESDEEEVRAHLRCVAEQPPLKLDTSSEKLEFLQLFGLTTQQQKEELVAQKRRKRRRMLRERSPSPPTIQSKRQTPSPRLALSTRYSPDEMNNSPNFEEKKKFLTIFNLTHISAEKRKDKERLVEMLRAMKQKALSAAVADSLTNSPRDSPAVSLSEPATQQASLDVEKPVGVAASLSDIPKAAEPGKLEQVRPQELSRVQELAPASGEKARLSEAPGGKKSLSMLHYIRGAAPKDIPVPLSHSTNGKSKPWEPFVAEEFAHQFHESVLQSTQKALQKHKGSVAVLSAEQNHKVDTSVHYNIPELQSSSRAPPPQHNGQQEPPTARKGPPTQELDRDSEEEEEEDDEDGEDEEEVPKRKWQGIEAVFEAYQEHIEEQNLERQVLQTQCRRLEARHYSLSLTAEQLSHSVAELRSQKQKMVSERERLQAELDHLRKCLALPAMHWPRGYLKGYPR
partner: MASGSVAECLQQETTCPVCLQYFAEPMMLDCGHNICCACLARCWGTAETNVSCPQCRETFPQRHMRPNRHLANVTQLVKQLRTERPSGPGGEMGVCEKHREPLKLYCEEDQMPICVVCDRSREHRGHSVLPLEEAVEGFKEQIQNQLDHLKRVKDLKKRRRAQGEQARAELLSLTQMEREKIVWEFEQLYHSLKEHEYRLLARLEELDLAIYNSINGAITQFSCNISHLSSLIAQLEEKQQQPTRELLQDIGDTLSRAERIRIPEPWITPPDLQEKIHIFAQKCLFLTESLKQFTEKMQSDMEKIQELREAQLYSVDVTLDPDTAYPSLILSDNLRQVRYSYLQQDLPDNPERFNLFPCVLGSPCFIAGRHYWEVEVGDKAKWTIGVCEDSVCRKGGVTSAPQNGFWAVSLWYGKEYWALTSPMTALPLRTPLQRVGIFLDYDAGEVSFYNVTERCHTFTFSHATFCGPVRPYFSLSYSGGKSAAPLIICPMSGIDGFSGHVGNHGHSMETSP
B3: Myotubularin-related protein 9 (Homo sapiens), Q96QG7 (parent)
chain: MEFAELIKTPRVDNVVLHRPFYPAVEGTLCLTGHHLILSSRQDNTEELWLLHSNIDAIDKRFVGSLGTIIIKCKDFRIIQLDIPGMEECLNIASSIEALSTLDSITLMYPFFYRPMFEVIEDGWHSFLPEQEFELYSSATSEWRLSYVNKEFAVCPSYPPIVTVPKSIDDEALRKVATFRHGGRFPVLSYYHKKNGMVIMRSGQPLTGTNGRRCKEDEKLINATLRAGKRGYIIDTRSLNVAQQTRAKGGGFEQEAHYPQWRRIHKSIERYHILQESLIKLVEACNDQTHNMDRWLSKLEASNWLTHIKEILTTACLAAQCIDREGASILIHGTEGTDSTLQVTSLAQIILEPRSRTIRGFEALIEREWLQAGHPFQQRCAQSAYCNTKQKWEAPVFLLFLDCVWQILRQFPCSFEFNENFLIMLFEHAYASQFGTFLGNNESERCKLKLQQKTMSLWSWVNQPSELSKFTNPLFEANNLVIWPSVAPQSLPLWEGIFLRWNRSSKYLDEAYEEMVNIIEYNKELQAKVNILRRQLAELETEDGMQESP
partner: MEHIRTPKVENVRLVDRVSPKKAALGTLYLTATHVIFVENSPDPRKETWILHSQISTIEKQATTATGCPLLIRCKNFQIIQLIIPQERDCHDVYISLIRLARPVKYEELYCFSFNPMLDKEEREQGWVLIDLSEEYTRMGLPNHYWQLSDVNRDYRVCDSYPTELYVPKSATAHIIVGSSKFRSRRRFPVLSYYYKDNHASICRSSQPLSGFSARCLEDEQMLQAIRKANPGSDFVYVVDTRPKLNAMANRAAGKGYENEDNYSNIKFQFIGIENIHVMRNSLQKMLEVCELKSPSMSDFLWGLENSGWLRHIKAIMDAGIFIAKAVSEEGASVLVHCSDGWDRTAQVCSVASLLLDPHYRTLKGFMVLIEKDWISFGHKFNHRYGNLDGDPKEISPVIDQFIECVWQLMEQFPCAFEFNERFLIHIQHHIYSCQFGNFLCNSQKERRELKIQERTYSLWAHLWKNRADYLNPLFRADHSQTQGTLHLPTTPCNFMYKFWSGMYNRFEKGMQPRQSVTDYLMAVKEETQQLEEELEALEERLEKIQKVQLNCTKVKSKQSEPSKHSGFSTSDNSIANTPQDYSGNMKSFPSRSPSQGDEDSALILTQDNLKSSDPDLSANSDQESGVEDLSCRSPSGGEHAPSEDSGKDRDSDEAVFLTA
B4: Coiled-coil domain-containing protein 120 (Homo sapiens), Q96HB5-4 (parent)
chain: MRREPRYQGQVGPDIHTDSERTLSSHQPRPLDSTKMEVKGQLISSPTFNAPAALFGEAAPQVKSERLRGLLDRQRTLQEALSLKLQELRKVCLQEAELTGQLPPECPLEPGERPQLVRRRPPTARAYPPPHPNQAHHSLCPAEELALEALEREVSVQQQIAAAARRLALAPDLSTEQRRRRRQVQADALRRLHELEEQLRDVRARLGLPVLPLPQPLPLSTGSVITTQGVCLGMRLAQLSQEDVVLHSESSSLSESGASHDNEEPHGCFSLAERPSPPKAWDQLRAVSGGSPERRTPWKPPPSDLYGDLKSRRNSVASPTSPTRSLPRSASSFEGRSVPATPVLTRGAGPQLCKPEGLHSRQWSGSQDSQMGFPRADPASDRASLFVARTRRSNSSEALLVDRAAGGGAGSPPAPLAPSASGPPVCKSSEVLYERPQPTPAFSSRTAGPPDPPRAARPSSAAPASRGAPRLPPVCGDFLLDYSLDRGLPRSGGGTGWGELPPAAEVPGPLSRRDGLLTMLPGPPPVYAADSNSPLLRTKDPHTRATRTKPCGLPPEAAEGPEVHPNPLLWMPPPTRIPSAGERSGHKNLALEGLRDWYIRNSGLAAGPQRRPVLPSVGPPHPPFLHARCYEVGQALYGAPSQAPLPHSRSFTAPPVSGRYYADFLYPPELSARLSDLTLEGEQSSSSDTQTPGTLV
partner: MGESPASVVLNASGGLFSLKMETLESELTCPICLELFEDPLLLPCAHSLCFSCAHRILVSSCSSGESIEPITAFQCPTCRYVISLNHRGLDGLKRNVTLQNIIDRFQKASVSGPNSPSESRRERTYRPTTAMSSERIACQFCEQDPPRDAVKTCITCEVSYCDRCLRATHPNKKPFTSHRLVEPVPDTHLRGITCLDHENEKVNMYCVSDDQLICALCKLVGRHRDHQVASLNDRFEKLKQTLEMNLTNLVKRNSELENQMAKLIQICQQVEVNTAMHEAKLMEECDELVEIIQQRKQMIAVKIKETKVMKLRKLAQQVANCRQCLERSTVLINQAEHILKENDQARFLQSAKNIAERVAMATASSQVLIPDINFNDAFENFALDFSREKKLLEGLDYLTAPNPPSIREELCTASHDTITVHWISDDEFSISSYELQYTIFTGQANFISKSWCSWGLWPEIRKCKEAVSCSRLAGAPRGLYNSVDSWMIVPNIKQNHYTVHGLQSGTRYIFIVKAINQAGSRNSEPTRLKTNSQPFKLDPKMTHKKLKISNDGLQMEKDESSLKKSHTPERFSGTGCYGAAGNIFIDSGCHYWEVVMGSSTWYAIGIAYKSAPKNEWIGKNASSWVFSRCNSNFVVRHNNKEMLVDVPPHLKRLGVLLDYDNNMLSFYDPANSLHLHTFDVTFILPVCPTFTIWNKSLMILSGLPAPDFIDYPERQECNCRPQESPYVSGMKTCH

Variants of: B1
Settings: with cr3l1_human CREB3L1, Q96BA8
P66S was tested, and the “effect of a mutation on the interaction” value was “with no effect”.

Variants of: B2
Settings: with tri27_human TRIM27, P14373
With R503Q the “effect of a mutation on the interaction” value was “with no effect”.

Variants of: B2
Settings: with tri27_human TRIM27, P14373
Remark: another data set of the same source
With E368K the “effect of a mutation on the interaction” value was “with no effect”.

Variants of: B3
Settings: with mtmr7_human MTMR7, Q9Y216
With R359S the “effect of a mutation on the interaction” value was “with no effect”.

Variants of: B4
Settings: with trim1_human MID2, Q9UJV3
R346W was tested, and the “effect of a mutation on the interaction” value was “with no effect”.
